{"source": "patent US20200123237A1", "binders": {"B1": {"name": "IgG1-S4497 (antibody, not shown: a dimerising Fc or GST)", "heavy": "EVQLVESGGGLVQPGGSLRLSCSASGFSFNSFWMHWVRQVPGKGLVWISFTNNEGTTTAYADSVRGRFIISRDNAKNTLYLEMNNLRGEDTAVYYCARGDGGLDDWGQGTLVTVSS", "light": "DIQLTQSPDSLAVSLGERATINCKSSQSIFRTSRNKNLLNWYQQRPGQPPRLLIHWASTRKSGVPDRFSGSGFGTDFTLTITSLQAEDVAIYYCQQYFSPPYTFGQGTKLEIK"}}, "target": "IgG1-S4497 (human)", "experiment": "cell-based or functional assay"}
{"binder": "B1", "values": [{"measurement": "EC50 of C3b deposition on Wood 46, purified classical pathway system", "result": 0.668, "unit": "µg/mL"}, {"measurement": "EC50 of C4b deposition on Wood 46, purified classical pathway system", "result": 0.886, "unit": "µg/mL"}, {"measurement": "EC50 of neutrophil-mediated phagocytic uptake of Wood 46, NHS devoid of IgG and IgM", "result": 0.144, "unit": "µg/mL"}, {"measurement": "EC50 of neutrophil-mediated phagocytic uptake of Wood 46, intact NHS", "result": 0.096, "unit": "µg/mL"}]}
